Here are results for 6 molecules from US20240116985A1 (published 2024).

Starred links: 1 amine or outer side, 2 acyl side, 3 side chain; linkers in the order of their positions; H or OH if unused. Positions of bridges follow the written chain, without caps; N, C: chain ends. Non-standard residues stand in square brackets, D forms with d. Primed or numbered codes have the meaning given here. PyrS2″ = (S)-3-amino-1-((pent-4-en-1-yloxy)carbonyl)pyrrolidine-3-carboxylic acid (stapling residue), C=CCCCOC(=O)N1CC[C@@](N[*:1])(C(=O)[*:2])C1; B5(16) = 2-amino-2-(pent-4-en-1-yl)hept-6-enoic acid = 2,2-bis(4-pentenyl)glycine (stitching residue), C=CCCCC(CCCC=C)(N[*:1])C(=O)[*:2]; B5(4) = 2,2-bis(4-pentenyl)glycine = 2-amino-2-(pent-4-en-1-yl)hept-6-enoic acid (stitching residue), C=CCCCC(CCCC=C)(N[*:1])C(=O)[*:2]; B5(3) = 2,2-bis(4-pentenyl)glycine (stitching residue), C=CCCCC(CCCC=C)(N[*:1])C(=O)[*:2]; B5 = 2-amino-2-(pent-4-en-1-yl)hept-6-enoic acid, C=CCCCC(CCCC=C)(N[*:1])C(=O)[*:2]; S6 = (S)-2-amino-2-methyloct-7-enoic acid, C=CCCCC[C@](C)(N[*:1])C(=O)[*:2]; Phe(2-Cl) = N[C@@H](Cc1ccccc1Cl)C(=O)O; Bta = N[C@@H](Cc1csc2ccccc12)C(=O)O; αAllylPro = C=CC[C@@]1(C(=O)O)CCCN1; tBuAla = CC(C)(C)C[C@H](N)C(=O)O; 3Thi = N[C@@H](Cc1ccsc1)C(=O)O; hSer = N[C@@H](CCO)C(=O)O; Aib = CC(C)(N)C(=O)O

What is called EC50 is the concentration giving half of the maximal effect.

Experiment [1] concerns the target T1, beta-catenin in DLD1 TCF/LEF luciferase reporter cells (UniProt P35222 1-781).
T1 sequence (looked up): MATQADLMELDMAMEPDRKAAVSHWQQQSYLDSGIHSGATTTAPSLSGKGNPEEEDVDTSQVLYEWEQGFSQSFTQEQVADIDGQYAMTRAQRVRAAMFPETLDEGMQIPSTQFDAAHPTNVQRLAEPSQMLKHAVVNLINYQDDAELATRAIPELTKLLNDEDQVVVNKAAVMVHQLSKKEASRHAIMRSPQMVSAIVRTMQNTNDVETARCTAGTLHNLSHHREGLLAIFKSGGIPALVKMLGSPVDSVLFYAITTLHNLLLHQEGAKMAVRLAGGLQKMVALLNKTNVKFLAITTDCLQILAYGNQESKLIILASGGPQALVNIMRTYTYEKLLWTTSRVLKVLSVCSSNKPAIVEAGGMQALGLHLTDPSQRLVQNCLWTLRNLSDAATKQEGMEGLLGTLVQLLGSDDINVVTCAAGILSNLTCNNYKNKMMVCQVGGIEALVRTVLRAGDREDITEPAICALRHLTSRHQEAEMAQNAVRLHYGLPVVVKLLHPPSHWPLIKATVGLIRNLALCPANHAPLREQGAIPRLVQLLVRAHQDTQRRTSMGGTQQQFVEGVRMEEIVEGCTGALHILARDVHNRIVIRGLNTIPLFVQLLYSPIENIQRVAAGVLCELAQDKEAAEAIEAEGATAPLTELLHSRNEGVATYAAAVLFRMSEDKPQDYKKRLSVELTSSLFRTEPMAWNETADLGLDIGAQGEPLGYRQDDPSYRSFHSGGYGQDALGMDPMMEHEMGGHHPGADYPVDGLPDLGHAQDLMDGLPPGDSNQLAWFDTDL
Nature of the experiment: cell-based or functional assay.

For experiment [2], the target named is T2, B-cat-Halo (beta-catenin HaloTag construct expressed in HEK293 cells) (UniProt P35222 1-781).
T2 sequence (looked up): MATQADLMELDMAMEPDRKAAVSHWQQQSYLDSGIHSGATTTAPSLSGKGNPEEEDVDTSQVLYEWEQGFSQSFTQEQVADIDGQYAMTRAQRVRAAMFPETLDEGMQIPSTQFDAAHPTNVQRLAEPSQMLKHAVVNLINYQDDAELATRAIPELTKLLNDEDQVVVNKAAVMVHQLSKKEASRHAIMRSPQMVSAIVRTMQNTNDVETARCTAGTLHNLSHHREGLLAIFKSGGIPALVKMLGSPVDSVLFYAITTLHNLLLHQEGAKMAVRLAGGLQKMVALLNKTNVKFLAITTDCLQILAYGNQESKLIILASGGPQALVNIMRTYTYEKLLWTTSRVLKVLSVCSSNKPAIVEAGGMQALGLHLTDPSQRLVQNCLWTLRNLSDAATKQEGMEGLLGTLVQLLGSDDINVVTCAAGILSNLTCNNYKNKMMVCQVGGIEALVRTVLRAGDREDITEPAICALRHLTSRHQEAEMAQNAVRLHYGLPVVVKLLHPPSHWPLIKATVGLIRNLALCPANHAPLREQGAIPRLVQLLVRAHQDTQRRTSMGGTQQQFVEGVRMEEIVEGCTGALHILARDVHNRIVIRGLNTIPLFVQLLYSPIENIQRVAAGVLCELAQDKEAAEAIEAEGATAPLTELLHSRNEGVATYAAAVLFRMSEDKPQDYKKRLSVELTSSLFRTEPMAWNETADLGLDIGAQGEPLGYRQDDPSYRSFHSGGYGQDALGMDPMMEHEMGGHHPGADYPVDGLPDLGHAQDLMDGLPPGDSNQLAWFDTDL
Nature of the experiment: cell-based or functional assay.

The target in experiment [3] is T3, B-cat-Halo (beta-catenin HaloTag Nano-BRET construct) (UniProt P35222 1-781).
T3 sequence (looked up): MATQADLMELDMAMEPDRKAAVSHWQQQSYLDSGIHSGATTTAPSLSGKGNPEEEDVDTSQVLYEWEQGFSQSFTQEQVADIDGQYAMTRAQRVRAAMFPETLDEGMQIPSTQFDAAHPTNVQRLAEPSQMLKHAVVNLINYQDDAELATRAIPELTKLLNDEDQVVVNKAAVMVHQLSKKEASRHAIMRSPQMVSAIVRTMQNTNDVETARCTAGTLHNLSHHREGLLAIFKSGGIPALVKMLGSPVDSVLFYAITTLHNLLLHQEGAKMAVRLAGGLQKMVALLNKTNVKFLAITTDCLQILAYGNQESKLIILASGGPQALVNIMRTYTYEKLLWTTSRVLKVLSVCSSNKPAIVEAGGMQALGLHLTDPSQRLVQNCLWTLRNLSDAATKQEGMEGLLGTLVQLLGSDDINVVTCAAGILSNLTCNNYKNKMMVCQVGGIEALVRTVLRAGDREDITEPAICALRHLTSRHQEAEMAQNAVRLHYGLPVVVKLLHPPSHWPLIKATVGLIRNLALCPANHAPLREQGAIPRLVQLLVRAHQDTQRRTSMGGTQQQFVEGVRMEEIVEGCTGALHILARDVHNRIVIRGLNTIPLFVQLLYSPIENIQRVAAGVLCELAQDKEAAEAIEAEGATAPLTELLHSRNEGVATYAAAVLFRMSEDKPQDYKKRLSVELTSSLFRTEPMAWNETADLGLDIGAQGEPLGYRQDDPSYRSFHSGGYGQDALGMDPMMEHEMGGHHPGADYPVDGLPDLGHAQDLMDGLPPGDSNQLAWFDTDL
Nature of the experiment: cell-based or functional assay.

The target of experiment [4] is T4, full-length beta-Catenin (Uniprot ID P35222) (Homo sapiens (Human), UniProt P35222 2-781).
T4 construct: Used at 10 nM in the FP probe solution as 'full-length'; Also used here for the endogenous beta-catenin of the DLD1 TCF/LEF reporter cells (functional rows); also called bCat; B-Catenin
T4 sequence: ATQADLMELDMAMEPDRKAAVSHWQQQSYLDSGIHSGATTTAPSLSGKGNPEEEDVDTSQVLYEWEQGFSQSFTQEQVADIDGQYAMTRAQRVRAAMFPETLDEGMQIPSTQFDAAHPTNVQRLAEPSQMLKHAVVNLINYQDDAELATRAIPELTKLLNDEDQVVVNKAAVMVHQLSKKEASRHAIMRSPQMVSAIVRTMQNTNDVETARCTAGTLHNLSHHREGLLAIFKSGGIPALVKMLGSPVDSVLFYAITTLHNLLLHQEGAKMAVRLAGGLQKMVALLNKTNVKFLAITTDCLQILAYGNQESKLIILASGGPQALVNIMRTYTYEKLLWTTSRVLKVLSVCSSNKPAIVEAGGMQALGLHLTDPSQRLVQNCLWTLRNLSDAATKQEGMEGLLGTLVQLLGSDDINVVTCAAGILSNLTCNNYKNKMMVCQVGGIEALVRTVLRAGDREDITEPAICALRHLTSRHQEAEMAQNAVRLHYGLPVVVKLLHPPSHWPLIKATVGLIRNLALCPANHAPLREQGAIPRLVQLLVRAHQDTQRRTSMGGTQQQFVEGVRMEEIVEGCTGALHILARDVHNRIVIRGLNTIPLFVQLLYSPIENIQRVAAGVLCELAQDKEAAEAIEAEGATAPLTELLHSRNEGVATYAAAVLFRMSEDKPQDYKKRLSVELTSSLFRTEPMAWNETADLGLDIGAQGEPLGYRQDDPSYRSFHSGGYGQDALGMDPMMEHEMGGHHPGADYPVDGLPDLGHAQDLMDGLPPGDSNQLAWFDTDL
Nature of the experiment: fluorescence polarization competition; 10 nM full-length beta-catenin + 10 nM 5FAM-TCF4 10-53 as competitor probe. Here is the method: The plate was incubated protected from light for 60 minutes at 20° C. prior to read. Reads were performed on a CLARIOstar plate reader (BMG Labtech) in duplicate, and data were fitted to a 1:1 binding model with hill slope using an in-house script. All provided concentrations are final concentrations.
On the technique in general: Polarisation of emitted light reports the rotation of a fluorescent probe.

For the molecule Ac-[αAllylPro]D[tBuAla][B5(3)]DDAAFT[PyrS2″][3Thi][Bta]Q-NH2 (staple 1-4, 4-11) [I-809], the “DLD1 4% Abs IC50” value in experiment [1] worked out at 11.3 µM. Also, in experiment [2], the “NanoBRET Abs IC50” value worked out at 6.1 µM.

As for Ac-[αAllylPro]D[tBuAla][S6]DDAAFL[Aib][3Thi][Bta]Q-NH2 (staple 1-4) [I-1978], the “NanoBRET Abs IC50” value in experiment [3] was greater than 20 µM.

Turning to Ac-[αAllylPro]D[tBuAla][B5(3)]DDAAF[hSer][PyrS2″][3Thi][Bta]Q-NH2 (staple 1-4, 4-11) [I-803], in experiment [1], the “DLD1 4% Abs IC50” value was determined as 9 µM. The “NanoBRET Abs IC50” value in experiment [2] turned out to be 9.6 µM.

Regarding Ac-[αAllylPro]D[tBuAla][B5]DDAAFN[PyrS2″][3Thi][Bta]T-NH2 (staple 1-4, 4-11) [I-814], the “DLD1 4% Abs IC50” value in experiment [1] is 16.5 µM. Moreover, the “NanoBRET Abs IC50” value in experiment [2] is 18.9 µM.

For the molecule Ac-[αAllylPro]DF[B5(16)]DDAAFT[PyrS2″][Phe(2-Cl)][Bta]Q-NH2 (staple 1-4, 4-11, Stapled (stitched) peptide composition) [I-1043], in experiment [4], the EC50 worked out at 0.012 µM.

In the case of Ac-[αAllylPro]DF[B5(4)]DDAAFT[PyrS2″][Phe(2-Cl)][Bta]S-NH2 (staple 1-4, 4-11, Stapled (stitched) peptide composition) [I-1049], the EC50 in experiment [4] was 0.006 µM.
